Measured values taken from PMC10995091, “Novel glycosidase from Paenibacillus lactis 154 hydrolyzing the 28-O-β-D-glucopyranosyl ester bond of oleanane-type saponins” (Applied Microbiology and Biotechnology, 2024).

Tests used:
[1] = substrate: CC1(C)CC[C@]2(C(=O)O[C@@H]3O[C@H](CO)[C@@H](O)[C@H](O)[C@H]3O)CC[C@]3(C)C(=CC[C@@H]4[C@@]5(C)CC[C@H](O[C@@H]6O[C@H](C(=O)O)[C@@H](O)[C@H](O)[C@H]6O[C@@H]6O[C@H](CO)[C@@H](O)[C@H](O)[C@H]6O)C(C)(C)[C@@H]5CC[C@]43C)[C@@H]2C1; test: initial rate of ZR1 formation from Ro; assay type: biochemical, Paenibacillus lactis; details: recombinant free enzyme; pH and temperature of the kinetic run not given; hydrolysis of the C-28 glucosyl ester
[2] = substrate: O=[N+]([O-])c1ccc(O[C@@H]2O[C@H](CO)[C@@H](O)[C@H](O)[C@H]2O)cc1; test: purified protein; details: recombinant free enzyme; pH and temperature of the kinetic run not given

B1: PlGH3 (Paenibacillus lactis; K755R/M754K) (protein)
chain: MRNHTLDTINKTEETVRYVQNPGGPTLGYSEESGVGIIEQDGLFFKDLSRDGKLDNYEDWRLTPEERAKDLASKMTVEQIAGLMLYSRHQSIPALSSGWFAGTYGGKTYEESGAKPWELTDEQIAFLTKDHVRHVLVTTVESPEVAARWNNKIQAFAEGTGLGIPANNSSDPRHASDSSSEFNAGAGGHISMWPETLGLAATFDPEITKKFGMIASREYRALGLATALSPQIDIATEPRWFRFNGTFGEDSKLAADMARAYVDGFQTSEGEREIADGWGYDSVNAMVKHWPGGGSGEAGRDAHYSCGKYAVYPGNNFDEHLVPFTEGAFKLDGKTGKASAVMPYYTISLGQDTVNGENVGNSYNSYLIRDLLRGKYGYDGVVCTDWMITADVSGPKDSFLSGKPWGVEDLTVGERHYKLQMAGVDQFGGNNEIEPVLEAYKIGVREHGEAYMRERFEQSAVRLLKNMFRLGLFENPYLDPQESATLVGNPEFMREGYEAQLKSIVMLKNKNGVLPLRAKSKVYIPKRFLPPGKDWFGNPTPESYDYPVNLEVVSKYFEVTDQPDEAEFGLVFITSPKSGTGYSQEDEERGGNGYVPISLQYKPYTAEHAREISLAGDEHGNEPRNRSYKGKTVIPHNTTDLNMVLETKEKMKGKPVIVSMLLCNPTVVSEFEAEVDAILANFGVQDQAMMEVLTGAAEPSGLLPMQMPAHMRTVEEQLEDVAHDMECHVDSEKHVYDFAFGMNWGGVIEDERTKRYRRS
notes: N-terminal His tag (pET-28a, BamHI/HindIII), E. coli BL21(DE3), Ni-NTA purified
B1 showed a Km [1] of 79.59 ± 3.42 µM, a kcat [1] of 18.52 ± 0.28 s⁻¹ and a Km [2] of 22.76 ± 1.33 µM. The kcat [2] was 46.18 s⁻¹.
